Measurements reported in US20070248613A1.
Where two headings read alike, the source gives them in different places.

Tests used:
[1] = biological target: gp120 of the HIV-1 HXB2 envelope (HIV-1 strain HXB2) (UniProt P04578); test: cell-based or functional assay
IQN17-2Pro = test: SPR (Biacore)
IZN17 (HIV) = IZN17 (HIV) (UniProt P04578); test: SPR (Biacore)
IZN17-G572D (HIV) = IZN17-G572D (HIV) (UniProt P04578); test: SPR (Biacore)
IZN17-L565M (HIV) = IZN17-L565M (HIV) (UniProt P04578); test: SPR (Biacore)
IZN17-Q567R (HIV) = IZN17-Q567R (HIV) (UniProt P04578); test: SPR (Biacore)
D5 IgG [2] = biological target: D5 IgG
Sequence of D5 IgG (VH, as listed by the source, chain 1 of 2): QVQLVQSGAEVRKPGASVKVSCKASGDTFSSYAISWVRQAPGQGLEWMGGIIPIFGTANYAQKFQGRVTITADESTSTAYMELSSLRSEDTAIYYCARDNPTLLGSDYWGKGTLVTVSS
Sequence of D5 IgG (VL, as listed by the source, chain 2 of 2): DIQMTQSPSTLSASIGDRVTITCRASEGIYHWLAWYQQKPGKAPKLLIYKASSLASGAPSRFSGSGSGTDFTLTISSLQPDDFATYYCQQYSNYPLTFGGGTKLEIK

D5 IgG [3] = biological target: D5 IgG; remark: listed apart in the source

Sequence of D5 IgG (antibody) (VH): as the sequence (VH, as listed by the source, chain 1 of 2) above
Sequence of D5 IgG (antibody) (VL): as the sequence (VL, as listed by the source, chain 2 of 2) above

X5 scFv
IC50, single cycle infectivity assay against HIV-HXB2 [1]: 30 nM

D5 IgG (antibody)
Kd (IQN17-2Pro): 240 nM | koff (IQN17-2Pro): 0.0022 s⁻¹ | kon (IQN17-2Pro): 9000 M⁻¹ s⁻¹ | Kd (IZN17 (HIV)): 0.1 nM | koff (IZN17 (HIV)): 0.00059 s⁻¹ | kon (IZN17 (HIV)): 6.1e+06 M⁻¹ s⁻¹ | Kd (IZN17-G572D (HIV)): 550 nM | koff (IZN17-G572D (HIV)): 0.003 s⁻¹ | kon (IZN17-G572D (HIV)): 5500 M⁻¹ s⁻¹ | Kd (IZN17-L565M (HIV)): 0.3 nM | koff (IZN17-L565M (HIV)): 0.00089 s⁻¹ | kon (IZN17-L565M (HIV)): 3e+06 M⁻¹ s⁻¹ | Kd (IZN17-Q567R (HIV)): 1.5 nM | koff (IZN17-Q567R (HIV)): 0.0012 s⁻¹ | kon (IZN17-Q567R (HIV)): 800000 M⁻¹ s⁻¹

IZN17 V570A (from UniProt P04578 565-581) (peptide)
IC50 (read off the curve) (D5 IgG [2]): 7 nM

IZN17-Q567R (from UniProt P04578 565-581) (peptide)
IC50 (read off the curve) (D5 IgG [3]): 10 nM

IZN17-L565M (from UniProt P04578 565-581) (peptide)
IC50 (read off the curve) (D5 IgG [3]): 10 nM

IZN17 (from UniProt P04578 565-581) (peptide)
IC50 (read off the curve) (D5 IgG [3]): 7 nM | IC50 (read off the curve) (D5 IgG [2]): 2 nM
